The subject of series [1] is GST:atALKBH9B wt (Arabidopsis thaliana). In words: EMSA. The settings on record: EMSA: 5 ng RNA in 10 ul Union Buffer (100 mM Tris-HCl pH 8.0, 1 M NaCl, 8 U RiboLock (so in the source)), 30 min at 4 C, 1.2% agarose; northwestern: 10 mM Tris-HCl pH ….
The test system of series [2] is GST:RBD (Arabidopsis thaliana). In words: EMSA. Particulars: EMSA: 5 ng RNA in 10 ul Union Buffer (100 mM Tris-HCl pH 8.0, 1 M NaCl, 8 U RiboLock (so in the source)), 30 min at 4 C, 1.2% agarose; northwestern: 10 mM Tris-HCl pH …. (In general: Mobility shift assays separate free from complexed probe on a gel.)

For orientation: Kd means the constant that tells how readily two partners part at equilibrium. As for 3'UTR transcript of AMV RNA3/4, the values for the Kd in series [1] and in series [2] were 0.3 µM and 0.64 µM, respectively.

The values above are taken from article PMC8287571.
